Measured values published in publication PMC3480987 (Molecular microbiology, 2012).
Residue numbers refer to the chain shown, from its start. Names may count otherwise. Like-named read-outs stand apart in the source and are kept apart here.

B1: Thioredoxin-UgtP fusion protein (wild type) (enzyme, B. subtilis, UniProt P54166 1-382, looked up)
chain: MNTNKRVLILTANYGNGHVQVAKTLYEQCVRLGFQHVTVSNLYQESNPIVSEVTQYLYLKSFSIGKQFYRLFYYGVDKIYNKRKFNIYFKMGNKRLGELVDEHQPDIIINTFPMIVVPEYRRRTGRVIPTFNVMTDFCLHKIWVHENVDKYYVATDYVKEKLLEIGTHPSNVKITGIPIRPQFEESMPVGPIYKKYNLSPNKKVLLIMAGAHGVLKNVKELCENLVKDDQVQVVVVCGKNTALKESLSALEAENGDKLKVLGYVERIDELFRITDCMITKPGGITLTEATAIGVPVILYKPVPGQEKENANFFEDRGAAIVVNRHEEILESVTSLLADEDTLHRMKKNIKDLHLANSSEVILEDILKESEMMTAKQKAKVLS
modifications: biotin on the copy immobilised on the biosensor (site not stated)
B2: UgtP (F112A V117A E306A N309A) (enzyme, B. subtilis, UniProt P54166 1-382, looked up)
chain: B1 chain with F112A, V117A, E306A, N309A
modifications: biotin on the copy immobilised on the biosensor (site not stated)

Tests used:
BLI [1] = molecular target: the molecule itself; assay: BLI
BLI [2] = molecular target: the molecule itself; assay: BLI; remark: listed apart in the source
[3] = molecular target: the molecule itself; assay: sucrose density gradient centrifugation + SEC

Protein | Kd (BLI [1]) [nM] | Kd (BLI [2]) [nM] | stoichiometry N [3] [monomers]
B1 | 17 | 69 | ~8.8
B2 | 16 | 21 | –
